What is called pKa is the negative logarithm of the acid dissociation constant. Read a high pKa as a weaker acid or stronger base. Usually stoichiometry N stands for the number of molecules, sites or subunits per partner or assembly.

The source of these data is article PMC7613103 (Science signaling, 2020).

Positions count from the first letter of the chain named. Names may count otherwise.

One series has as its target Cys118 (UniProt position 118, LLTIKCLLIHP). Nature of the series: chemical modification. The following applies: 10 °C; 100 mM NaCl; Free reduced enzyme, 14.4 μM, no ubiquitin or other ligand.
The target in the next series is Cys95 (UniProt position 95, ANGEICVNVLK). Kind of series: chemical modification. The note with it: 10 °C; 100 mM NaCl; Free reduced enzyme, 14.4 μM, no ubiquitin or other ligand.
Series [1] addresses UBE2S^UBC (UBC domain of UBE2S, residues 1-156) (human) (UniProt Q16763). Nature of the series: cross-linking + SEC-MALS. (In gel filtration, larger molecules generally elute earlier.)
Series [2] has as its target T1, UBE2S (full-length, untagged, purified) (human), Q16763.
T1 chain: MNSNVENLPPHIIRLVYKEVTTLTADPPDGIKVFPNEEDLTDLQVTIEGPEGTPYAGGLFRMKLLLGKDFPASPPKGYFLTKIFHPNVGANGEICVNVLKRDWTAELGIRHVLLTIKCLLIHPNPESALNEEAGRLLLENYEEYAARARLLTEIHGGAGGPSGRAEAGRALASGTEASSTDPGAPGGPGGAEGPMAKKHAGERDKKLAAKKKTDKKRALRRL
Kind of series: cross-linking + SEC-MALS. The following applies: remark: other sources report otherwise.

The series “cross-linking” concerns the molecule itself. Nature of the series: cross-linking.

“Ubiquitin-conjugating enzyme E2 S (UBE2S) C95S variant (Homo sapiens; C95S)”: in the series with Cys118, the pKa is on record as 9.4 ± 0.1.
In the case of “Ubiquitin-conjugating enzyme E2 S (UBE2S) C118S variant (Homo sapiens; C118S)”, in the series with Cys95, the pKa is 6.4 ± 0.2.
In the case of “UBE2S^UBC (UBC domain of UBE2S, residues 1-156) (from UniProt Q16763 1-156) (domain or fragment)”, in series [1], the stoichiometry N stood at 2.

B1: UBE2S (full-length, untagged, purified), Q16763 1-222 (enzyme)
chain: T1 chain
With B1, the stoichiometry N in series [2] was 2.

B2: UBE2S C95S (full-length) (enzyme)
chain: T1 chain with C95S
Take B2: the binding result in “cross-linking” is recorded as “binds”.
